# Values joined by “and” are separate entries in the source; they are usually repeats but may differ in a detail not shown here. Equal entries are not always repeated.
# Columns and labels:
# [1] = biological target: full length human PD-L1 (amino acids 1 to 290 of NP_054862.1) on transfected cells (human, UniProt Q9NZQ7 19-290); experiment: cell-based or functional assay
# [2] = biological target: T1, recombinant cynomolgus monkey PD-L1 expressed with a C-terminal mouse IgG2a Fc tag (cynomolgus monkey); experiment: SPR (Biacore), mAb captured, 37C
# T1 construct: also called MfPD-L1-mFc; monkey PD-L1-mFc
# Description: (§1) Binding association and dissociation rate constants (kₐ and kd, respectively), equilibrium dissociation constants and dissociation half-lives (KD and t_{1/2}, respectively) of antigen binding to purified anti-PD-L1 monoclonal antibodies were determined using a real-time surface plasmon resonance biosensor assay on a Biacore 4000 instrument. The Biacore sensor surface was either derivatized with polyclonal rabbit anti-mouse antibody (GE, #BR-1008-38) or with monoclonal mouse anti-human Fc antibody (GE, #BR-1008-39) to capture approximately 200-300 RUs of anti-PD-L1 monoclonal antibodies, expressed with either a mouse Fc or with human Fc, respectively. […] Different concentrations of PD-L1 reagents were injected over the anti-PD-L1 monoclonal antibody captured surface at a flow rate of 30 μL/min. The binding of the PD-L1 reagents to the captured monoclonal antibodies was monitored for 3 to 4 minutes while the dissociation of antibody bound PD-L1 reagents was monitored for 10 minutes in HBST running buffer (0.01 M HEPES pH 7.4, 0.15 M NaCl, 3 mM EDTA, 0.05% v/v Surfactant tween-20). Experiments were performed at either 25° C. or 37° C. Kinetic association (kₐ) and dissociation (kd) rate constants were determined by processing and fitting the data to a 1:1 binding model using Scrubber 2.0c curve fitting software. Binding dissociation equilibrium constants (KD) and dissociative half-lives (t_{1/2}) were then calculated from the kinetic rate constants as: KD (M)=kd/kₐ and t_{1/2} (min)=[In2/(60*kd)].
# [3] = biological target: T2, recombinant human PD-L1 (amino acids 19-239 of NP_054862.1) with a C-terminal myc-myc-hexahistidine tag (human); experiment: SPR (Biacore), mAb captured, 37C
# T2 construct: also called hPD-L1-MMH; hPD-L1-MMH Monomer
# Description: as §1
# Human PD-L1 Dimer [4] = biological target: T3, Human PD-L1 Dimer (human, UniProt Q9NZQ7 19-239); experiment: SPR (Biacore), mAb captured, 37C
# T3 construct: also called hPD-L1 dimer; hPD-L1-hFc
# Description: as §1
# [5] = biological target: T4, recombinant cynomolgus monkey PD-L1 with a C-terminal myc-myc-hexahistidine tag (cynomolgus monkey (Macaca fascicularis)); experiment: SPR (Biacore), mAb captured, 37C
# T4 construct: also called MfPD-L1-MMH; MfPD-L1-MMH Monomer
# Description: as §1
# Human PD-L1 Dimer [6] = biological target: T3, Human PD-L1 Dimer; experiment: SPR (Biacore), mAb captured, 25C
# Description: as §1
# [7] = biological target: T4, recombinant cynomolgus monkey PD-L1 …; experiment: SPR (Biacore), mAb captured, 25C
# Description: as §1
# [8] = biological target: T5, recombinant cynomolgus monkey PD-L1 with a C-terminal mouse IgG2a Fc tag (cynomolgus monkey (Macaca fascicularis)); experiment: SPR (Biacore), mAb captured, 25C
# T5 construct: also called MfPD-L1-mFc; monkey PD-L1-mFc
# Description: as §1
# T5 sequence (chain, as listed by the source limits assumed): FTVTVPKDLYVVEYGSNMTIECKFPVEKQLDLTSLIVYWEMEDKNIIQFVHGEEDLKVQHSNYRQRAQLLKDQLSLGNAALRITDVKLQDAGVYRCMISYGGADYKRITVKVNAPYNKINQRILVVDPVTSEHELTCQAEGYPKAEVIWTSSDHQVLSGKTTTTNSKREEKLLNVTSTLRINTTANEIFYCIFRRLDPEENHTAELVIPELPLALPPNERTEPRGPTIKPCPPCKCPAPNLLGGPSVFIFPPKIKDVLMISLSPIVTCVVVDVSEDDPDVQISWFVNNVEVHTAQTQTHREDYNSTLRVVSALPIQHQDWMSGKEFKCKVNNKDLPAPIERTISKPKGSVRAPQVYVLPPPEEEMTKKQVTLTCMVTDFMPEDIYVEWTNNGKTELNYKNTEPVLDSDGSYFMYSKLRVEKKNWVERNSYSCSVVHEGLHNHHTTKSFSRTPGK
# T3 sequence (Q9NZQ7 19-239): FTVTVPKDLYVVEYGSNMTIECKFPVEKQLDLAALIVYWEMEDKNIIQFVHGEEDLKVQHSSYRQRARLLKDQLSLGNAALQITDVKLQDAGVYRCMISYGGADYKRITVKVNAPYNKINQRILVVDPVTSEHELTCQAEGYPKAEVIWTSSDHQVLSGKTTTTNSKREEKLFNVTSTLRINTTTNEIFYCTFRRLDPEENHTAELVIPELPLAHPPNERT
# T2 sequence (chain, as listed by the source limits assumed): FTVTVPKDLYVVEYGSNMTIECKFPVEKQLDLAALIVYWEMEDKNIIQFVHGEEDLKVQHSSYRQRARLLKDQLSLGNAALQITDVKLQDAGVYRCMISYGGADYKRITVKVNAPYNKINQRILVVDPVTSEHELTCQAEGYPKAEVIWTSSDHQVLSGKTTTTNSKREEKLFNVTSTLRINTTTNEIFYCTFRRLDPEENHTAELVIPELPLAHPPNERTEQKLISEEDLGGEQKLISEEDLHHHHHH
# T4 sequence (chain, as listed by the source limits assumed): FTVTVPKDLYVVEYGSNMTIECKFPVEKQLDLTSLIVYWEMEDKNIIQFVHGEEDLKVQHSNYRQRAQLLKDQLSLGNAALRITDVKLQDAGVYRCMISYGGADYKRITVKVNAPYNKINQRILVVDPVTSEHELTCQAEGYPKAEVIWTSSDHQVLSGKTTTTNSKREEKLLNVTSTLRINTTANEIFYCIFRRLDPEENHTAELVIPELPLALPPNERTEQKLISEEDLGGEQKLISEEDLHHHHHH
# full length human PD-L1 (amino acids 1 to 290 of NP_054862.1) on transfected cells, sequence (Q9NZQ7 19-290 limits assumed): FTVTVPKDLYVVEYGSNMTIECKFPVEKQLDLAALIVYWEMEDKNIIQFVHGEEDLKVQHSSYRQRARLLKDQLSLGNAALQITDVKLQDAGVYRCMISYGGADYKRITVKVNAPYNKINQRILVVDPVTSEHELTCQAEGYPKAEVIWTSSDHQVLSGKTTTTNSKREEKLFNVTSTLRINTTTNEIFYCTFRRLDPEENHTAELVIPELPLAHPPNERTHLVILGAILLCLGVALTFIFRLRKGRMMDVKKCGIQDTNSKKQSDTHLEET
Binder,Kd [3] [nM],koff [3] [s⁻¹],kon [3] [M⁻¹ s⁻¹],t1/2 [3] [min],Kd (Human PD-L1 Dimer [4]) [nM],koff (Human PD-L1 Dimer [4]) [s⁻¹],kon (Human PD-L1 Dimer [4]) [M⁻¹ s⁻¹],t1/2 (Human PD-L1 Dimer [4]) [min],Kd [5] [nM],koff [5] [s⁻¹],kon [5] [M⁻¹ s⁻¹],t1/2 [5] [min],Kd (Human PD-L1 Dimer [6]) [nM],koff (Human PD-L1 Dimer [6]) [s⁻¹],kon (Human PD-L1 Dimer [6]) [M⁻¹ s⁻¹],t1/2 (Human PD-L1 Dimer [6]) [min],Kd [7] [nM],koff [7] [s⁻¹],kon [7] [M⁻¹ s⁻¹],t1/2 [7] [min],also measured
"H1H8314N (antibody, V domains shown, human IgG1 Fc form (H1H prefix) of numerical identifier 8314) VH: EVQLVESGGGVVRPGGSLRLSCAASGFTFDDYGMTWVRQAPGRGLEWVSGIHWHGKRTGYADSVKGRFTISRDNAKKSLYLQMNSLKGEDTALYHCVRGGMSTGDWFDPWGQGTLVIVSS VL: DIQMTQSPSSLSASLGDRVTITCRASQSINSYLNWYQQKPGKAPKLLIYVASSLQSGVPSRFSGSGSGTEFTLTISNLQPEDFATYYCQQSYSTPPITFGQGTRLEIK",,,,,,,,,,,,,,,,,,,,,Concentration [M] of Antibody at 125% activation [1]: 6.57e-11 M; Emax mean [%] @ 100 nM [1]: 148%; Kd [2]: 0.0333 nM; koff [2]: 9.6e-05 s⁻¹; kon [2]: 2.89e+06 M⁻¹ s⁻¹; t1/2 [2]: 120 min
"H1H9345P2 (antibody, human IgG1, V domains shown) VH: EVQLVESGGGLVQPGGSLRLSCAASGFTISTNYMNWVRQAPGKGLEWVAVIYSSGSTYYIDSVKGRFTISRLTSKNTVYLQMSSLNSEDTAVYYCARGIRGFDIWGQGTMVTVSS VL: not shown",197,0.034,172000,0.3,0.297,0.000203,682000,57,121,0.0197,164000,0.6,0.474,0.000237,500000,49,77.3,0.0085,110000,1.4,Kd [8]: 0.512 nM; koff [8]: 0.000151 s⁻¹; kon [8]: 296000 M⁻¹ s⁻¹; t1/2 [8]: 76 min
"H1H9354P2 (antibody, human IgG1, V domains shown) VH: EVQLVESGGGLVQPGGSLRLSCEASGFTVGVNHMNWVRQAPGKGLEWVSVIFSSGRTFYGDYVKGRLTIFRQTSQNTVYLQMNSLRSEDTAIYYCARGIGGLDIWGRGTMVTVSS VL: not shown",15.4,0.00114,73900,10,0.317,0.000145,456000,80,9.82,0.000844,85900,14,0.689,0.000116,168000,100,6.64,0.000305,46000,38,Kd [8]: 0.447 nM; koff [8]: 9.14e-05 s⁻¹; kon [8]: 205000 M⁻¹ s⁻¹; t1/2 [8]: 126 min
"H1H9364P2 (antibody, human IgG1, V domains shown) VH: EVQLVESGGGLVQPGRSLRLSCAASGFTFDDYALHWVRQAPGKGLEWVSGISWTGGTIDYADSVKGRFTISRDNAKNSLYLQMSSLRTEDTAIYYCTRDIRGNWKYGGWFDPWGQGTLVTVSS VL: not shown",0.417,0.000563,1.35e+06,21,0.0208,6.96e-05,3.34e+06,166,0.566,0.000633,1.12e+06,18,0.0437,0.000106,2.42e+06,109,0.412,0.000312,757000,37,Kd [8]: 0.0587 nM and 0.0462 nM; koff [8]: 7.75e-05 s⁻¹ and 5.8e-05 s⁻¹; kon [8]: 1.32e+06 M⁻¹ s⁻¹ and 1.25e+06 M⁻¹ s⁻¹; t1/2 [8]: 149 min and 199 min
"H1H9382P2 (antibody, human IgG1, V domains shown) VH: EVQLVESGGGLVQPGGSLRLSCAASGFTVGTNFMNWVRQAPGKGLEWVSAIYSGGTANYADSVKGRFTISRDTSRNTLYLQMNSLRTEDTAVYYCARGGGMDVWGQGTTVTVSS VL: not shown",107,0.0107,99700,1.1,0.278,0.000137,492000,84,189,0.0245,130000,0.5,0.663,0.000148,223000,78,157,0.0129,82200,0.9,Kd [8]: 0.626 nM; koff [8]: 0.000133 s⁻¹; kon [8]: 213000 M⁻¹ s⁻¹; t1/2 [8]: 87 min
"H1H9387P2 (antibody, human IgG1, V domains shown) VH: QVQLVQSGAEVKKPGSSVKVSCKASGGTFNTYVLSWVRQAPGQGLEWMGEIIPILGAANYAQNFQGRVTFTTDESTNTAYMDLSSLRSEDTAVYYCARDRTSGGFDPWGQGTLVTVSS VL: not shown",39.1,0.137,3.49e+06,0.08,0.0639,0.000392,6.12e+06,29,48.9,0.157,3.2e+06,0.07,0.0427,0.000217,5.07e+06,53,25.5,0.0604,2.37e+06,0.2,Kd [8]: 0.0452 nM and 0.073 nM; koff [8]: 0.000161 s⁻¹ and 0.000212 s⁻¹; kon [8]: 3.55e+06 M⁻¹ s⁻¹ and 2.9e+06 M⁻¹ s⁻¹; t1/2 [8]: 72 min and 55 min
"H1H9396P2 (antibody, human IgG1, V domains shown) VH: QVQLVQSGAEVEKPGASVKVSCKASGYIFTHYGISWVRQAPGQGLEWVGWISPYNGYTDYAQKLQGRVTLTTDTSTTTAYMELRNLRSDDTAMYYCSRGRGPYWSFDLWGRGTLVTVSS VL: not shown",33,0.0113,344000,1,0.237,0.000258,1.09e+06,45,30.5,0.012,394000,1,0.245,0.00019,776000,61,12.2,0.00252,206000,4.6,Kd [8]: 0.225 nM; koff [8]: 0.000188 s⁻¹; kon [8]: 837000 M⁻¹ s⁻¹; t1/2 [8]: 61 min
"H1H8323N (antibody, V domains shown, human IgG1 Fc form (H1H prefix) of numerical identifier 8323) VH: QVQLVQSGAEVKMPGSSVRVSCKASGGIFSSSTISWVRQAPGQGLEWMGEIIPVFGTVNYAQKFQDRVIFTADESTTTAYMELSSLKSGDTAVYFCARNWGLGSFYIWGQGTMVTVSS VL: EIVLTQSPGTLSLSPGERATLSCRASQSFNFNYLAWYQQKPGQAPRLLIYGASSRATGIPDRFSGSGSGTDFTLTINRLEPEDFGVFYCQQYESAPWTFGQGTKVEIK",,,,,,,,,,,,,,,,,,,,,Kd [2]: 0.0451 nM; koff [2]: 0.000135 s⁻¹; kon [2]: 2.99e+06 M⁻¹ s⁻¹; t1/2 [2]: 86 min

# Source: US20210380702A1 (Regeneron, published 2021)
